Values of other authors, collected in PMC11548882.
pKd: −log10 of the molar value.

Target: EGFR (Homo sapiens) (UniProt P00533)

pKd: 8.40
Substance: EGF (from UniProt P01133)
